For 67 sequences, protein stability index results are on record in the supplement of paper PMC10724198.

This data set deals with Saccharomyces cerevisiae. The data set is described as follows: protein stability index of tFT-peptide fusion (C-terminal peptide) (PSI (0-1 scale)); higher = more stable (slower turnover). To be noted: temperature: 30 C. As to the method: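 MPS profiling in S. cerevisiae of the yeast C-terminome library: the last 12 aa of each annotated ORF are fused to the C-terminus of a sfGFP-mCherry timer, after a GGGS linker. Cells are FACS-sorted into 8 mCherry/sfGFP bins and deep-sequenced. PSI runs from 0 (unstable) to 1 (stable); wild type and das1Δ backgrounds, two technical replicates each.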

Setting [1] is: genetic background: das1 deletion.

± gives the standard deviation of the averaged measurements.

On to “KCIRGGVFLWII [YGL014C-A C-terminal 12 aa]”, for which the protein stability index by setting is: under setting [1], 0.605 ± 0.019; (genetic background: wild type) 0.309 ± 0.0041.
The matching figures for KDELERVAKSNR [RPS5 C-terminal 12 aa]: 0.6889 ± 0.0032 and 0.694 ± 0.017.
The matching figures for KENSRSWIIYLL [YGL034C C-terminal 12 aa]: 0.653 ± 0.016 and 0.556 ± 0.03.
In the same order, the values of KESSTSSEKQIA [THI72 C-terminal 12 aa] are 0.67657 ± 0.00024 and 0.6804 ± 0.0025.
In the case of KFSTRMKLAHGK [SLX1 C-terminal 12 aa], the protein stability index under setting [1] worked out at 0.698 ± 0.019 and the protein stability index (genetic background: wild type) was 0.728 ± 0.021.
As for KGIKGFFHRIFD [YGR126W C-terminal 12 aa], the protein stability index was 0.6963 ± 0.002 under setting [1] and 0.68 ± 0.018 (genetic background: wild type).
As for KHLAKALADLIS [JHD1 C-terminal 12 aa], the protein stability index runs as follows: under setting [1], 0.717 ± 0.018; (genetic background: wild type) 0.701 ± 0.032.
The matching figures for “KICVTLIVNELI [YLR342W-A C-terminal 12 aa]”: 0.4662 ± 0.0016 and 0.39 ± 0.028.
In the same order, the values of KIHTAAIAAFKQ [ATP12 C-terminal 12 aa] are 0.7013 ± 0.0055 and 0.612 ± 0.033.
The matching figures for KILKGAEKKPQL [CNA1 C-terminal 12 aa]: 0.689 ± 0.0099 and 0.707 ± 0.022.
KISTHSNAPSPG [SMA1 C-terminal 12 aa]: the protein stability index by setting is: under setting [1], 0.669 ± 0.015; (genetic background: wild type) 0.675 ± 0.022.
The matching figures for KIWVNIYSTPTS [PLS1 C-terminal 12 aa]: 0.6827 ± 0.0066 and 0.705 ± 0.035.
In turn, KKKGLFGRMKKK [YMR295C C-terminal 12 aa] had a protein stability index under setting [1] of 0.719 ± 0.028 and a protein stability index (genetic background: wild type) of 0.69 ± 0.067.
In the same order, the values of KKKKPAAEGAAK [TMA22 C-terminal 12 aa] are 0.696 ± 0.026 and 0.708 ± 0.043.
The matching figures for KKKSRAKKPGNV [HDA3 C-terminal 12 aa]: 0.685 ± 0.011 and 0.734 ± 0.041.
For KKKVEFSFPDDI [MIL1 C-terminal 12 aa], the protein stability index is, setting by setting: under setting [1], 0.701 ± 0.0087; (genetic background: wild type) 0.73 ± 0.016.
In the same order, the values of KKPLFKRKVLQI [YNL205C C-terminal 12 aa] are 0.6883 ± 0.0025 and 0.422 ± 0.011.
In the same order, the values of KKVQSYTLQEDY [BUD13 C-terminal 12 aa] are 0.695 ± 0.015 and 0.692 ± 0.03.
The matching figures for KLDDIIRARRSR [TGL3 C-terminal 12 aa]: 0.7405 ± 0.0066 and 0.692 ± 0.034.
Take KLENDISVKVED [NTG1 C-terminal 12 aa]: the protein stability index came to 0.6863 ± 0.0054 under setting [1] and 0.674 ± 0.014 (genetic background: wild type).
Sequence KLLEESKGLLDV [YJR079W C-terminal 12 aa] displayed a protein stability index under setting [1] of 0.701 ± 0.023 and a protein stability index (genetic background: wild type) of 0.699 ± 0.013.
The matching figures for KNFQEHLRSING [AGC1 C-terminal 12 aa]: 0.695 ± 0.01 and 0.702 ± 0.032.
As to KNHEMGEEETKF [TCB1 C-terminal 12 aa], the protein stability index reads like this: under setting [1], 0.715 ± 0.0045; (genetic background: wild type) 0.721 ± 0.041.
The matching figures for KNNYSSRNSNIY [MSS116 C-terminal 12 aa]: 0.713 ± 0.0098 and 0.711 ± 0.028.
The matching figures for KNRKRVLGVAYL [PXP3 C-terminal 12 aa]: 0.783 ± 0.022 and 0.837 ± 0.063.
On to KNWGPKARPNTS [TRM1 C-terminal 12 aa], for which the protein stability index came to 0.698 ± 0.016 under setting [1] and 0.655 ± 0.011 (genetic background: wild type).
In the same order, the values of KPIEKVYFNRGI [FSF1 C-terminal 12 aa] are 0.713 ± 0.051 and 0.7368 ± 0.0054.
In the same order, the values of KPIGEAAAIKEK [YLH47 C-terminal 12 aa] are 0.696 ± 0.027 and 0.707 ± 0.044.
In the same order, the values of KQAIYTRATASE [RPS25A C-terminal 12 aa] are 0.693 ± 0.012 and 0.687 ± 0.0034.
In the case of KQIDVHLDKNKA [GCD7 C-terminal 12 aa], the protein stability index runs as follows: under setting [1], 0.6862 ± 0.004; (genetic background: wild type) 0.697 ± 0.0038.
The matching figures for KQIVFEIPSQTN [RPS7B C-terminal 12 aa]: 0.69872 ± 0.00027 and 0.673 ± 0.0084.
In the same order, the values of KQMYKYHIIVLF [YBL083C C-terminal 12 aa] are 0.305 ± 0.035 and 0.106 ± 0.0037.
The matching figures for KRFTTNRNGNVI [GEF1 C-terminal 12 aa]: 0.732 ± 0.022 and 0.696 ± 0.027.
Regarding KSCVSSLRVMAM [YNL276C C-terminal 12 aa], the protein stability index under setting [1] came to 0.608 ± 0.013 and the protein stability index (genetic background: wild type) came to 0.597 ± 0.023.
Consider KSEGGDLPHLVQ [SPS4 C-terminal 12 aa], for which the protein stability index was determined as 0.701 ± 0.024 under setting [1] and 0.68 ± 0.013 (genetic background: wild type).
The matching figures for KSKFQERLQQGL [RET3 C-terminal 12 aa]: 0.701 ± 0.0071 and 0.6467 ± 0.0052.
On to KVKTKKEEGKER [PXA2 C-terminal 12 aa], for which the protein stability index came out at 0.698 ± 0.022 under setting [1] and 0.654 ± 0.0067 (genetic background: wild type).
On to KVPPRKDGIKFR [RTS2 C-terminal 12 aa], for which the protein stability index by setting is: under setting [1], 0.728 ± 0.0069; (genetic background: wild type) 0.695 ± 0.018.
The matching figures for KWKKNKKRKFTK [UBP10 C-terminal 12 aa]: 0.729 ± 0.024 and 0.6898 ± 0.0066.
In the same order, the values of KWLLKPCIYKRR [RRP8 C-terminal 12 aa] are 0.717 ± 0.0061 and 0.691 ± 0.016.
In the same order, the values of KYLNDEQVKLNV [ADE13 C-terminal 12 aa] are 0.72 ± 0.026 and 0.68 ± 0.035.
For the sequence KYTGVYRSSWHG [YLR125W C-terminal 12 aa], the protein stability index reads like this: under setting [1], 0.701 ± 0.0013; (genetic background: wild type) 0.6925 ± 0.0057.
In the same order, the values of KYVTQILYTPLQ [GAL83 C-terminal 12 aa] are 0.692 ± 0.0075 and 0.7144 ± 0.0036.
In the same order, the values of LAFFKRDFFKGL [NDI1 C-terminal 12 aa] are 0.699 ± 0.02 and 0.569 ± 0.039.
In the same order, the values of LAIEIVLCLKAR [YLR255C C-terminal 12 aa] are 0.331 ± 0.0034 and 0.355 ± 0.019.
Consider LALFAGLISALL [GAS3 C-terminal 12 aa], for which the protein stability index was determined as 0.71854 ± 0.00069 under setting [1] and 0.654 ± 0.0065 (genetic background: wild type).
The matching figures for LCEFLKGVQSAL [DAK1 C-terminal 12 aa]: 0.7137 ± 0.005 and 0.683 ± 0.011.
In the same order, the values of LCLLFFTFSLFF [GAS4 C-terminal 12 aa] are 0.3594 ± 0.0027 and 0.371 ± 0.016.
In the case of LDDNELFKNVWS [AGE2 C-terminal 12 aa], the protein stability index was determined as 0.728 ± 0.017 under setting [1] and 0.713 ± 0.017 (genetic background: wild type).
The matching figures for LDVVKSRGSKHS [HSU1 C-terminal 12 aa]: 0.7099 ± 0.003 and 0.7 ± 0.062.
The matching figures for LEKDTRQDTKAN [MCO10 C-terminal 12 aa]: 0.693 ± 0.0045 and 0.671 ± 0.025.
The matching figures for LENLSQEYCSEI [YBR096W C-terminal 12 aa]: 0.715 ± 0.029 and 0.72 ± 0.023.
Take LEVYASGNPNAT [NDC1 C-terminal 12 aa]: the protein stability index by setting is: under setting [1], 0.697 ± 0.016; (genetic background: wild type) 0.692 ± 0.0073.
For the sequence LEWLSNNLKNQS [ARF2 C-terminal 12 aa], the protein stability index under setting [1] was 0.702 ± 0.0047 and the protein stability index (genetic background: wild type) came to 0.714 ± 0.041.
The matching figures for LEYLQDTYQVLK [FAR3 C-terminal 12 aa]: 0.702 ± 0.031 and 0.733 ± 0.01.
In the case of LEYYSNRDNDMN [RIF1 C-terminal 12 aa], the protein stability index reads like this: under setting [1], 0.672 ± 0.042; (genetic background: wild type) 0.69 ± 0.026.
In turn, LFSDKMEPLFKK [AIF1 C-terminal 12 aa] came in with a protein stability index under setting [1] of 0.746 ± 0.018 and a protein stability index (genetic background: wild type) of 0.738 ± 0.012.
The matching figures for LGIVIKRGKSLK [YJU2 C-terminal 12 aa]: 0.7248 ± 0.0027 and 0.738 ± 0.024.
In the same order, the values of LGVVSKMLVTCK [CIA2 C-terminal 12 aa] are 0.303 ± 0.026 and 0.326 ± 0.0041.
Take LIALNRYIEDLH [MRP20 C-terminal 12 aa]: the protein stability index runs as follows: under setting [1], 0.6999 ± 0.0024; (genetic background: wild type) 0.695 ± 0.007.
Consider LIEDVNKLKIKA [SOV1 C-terminal 12 aa], for which the protein stability index was determined as 0.634 ± 0.029 under setting [1] and 0.645 ± 0.025 (genetic background: wild type).
In the same order, the values of LISRRREDEERN [YPL216W C-terminal 12 aa] are 0.788 ± 0.038 and 0.726 ± 0.037.
In the same order, the values of LIVVLLLLLLVL [SYN8 C-terminal 12 aa] are 0.446 ± 0.0069 and 0.545 ± 0.12.
In the same order, the values of LKEASRYILEVY [MET10 C-terminal 12 aa] are 0.28 ± 0.013 and 0.31 ± 0.0096.
Regarding LKGILNLFSKIR [KRE29 C-terminal 12 aa], the protein stability index reads like this: under setting [1], 0.671 ± 0.0078; (genetic background: wild type) 0.699 ± 0.025.
As to LKHFVSAPSSSL [MRK1 C-terminal 12 aa], the protein stability index was 0.699 ± 0.011 under setting [1] and 0.656 ± 0.0095 (genetic background: wild type).
The matching figures for LKNKKKLYKTKV [PPQ1 C-terminal 12 aa]: 0.7157 ± 0.0043 and 0.694 ± 0.017.
